Measured values from patent publication WO2011104307A2 (dated 2011).

Target: T1, rProtein A Sepharose FF (Staphylococcus aureus, UniProt P38507 37-327)
T1 construct: the protein ligand is immobilized on agarose beads; also called rProtein A Sepharose 4 FF
Assay: microtiter plate column chromatography, Bradford assay; Bound (%)

B1: Bevacizumab Fab fragment (Fab, V domains shown)
VH: EVQLVESGGGLVQPGGSLRLSCAASGYTFTNYGMNWVRQAPGKGLEWVGWINTYTGEPTYAADFKRRFTFSLDTSKSTAYLQMNSLRAEDTAVYYCAKYPHYYGSSHWYFDVWGQGTLVTVSS
VL: DIQMTQSPSSLSASVGDRVTITCSASQDISNYLNWYQQKPGKAPKVLIYFTSSLHSGVPSRFSGSGSGTDFTLTISSLQPEDFATYYCQQYSTVPWTFGQGTKVEIKR
notes: also called Fab fragments
B1: no binding.
